For experiment [1], the target named is T1, PolyG-1620 peptide (S-atropisomer) (not fully specified (N-terminus); printed as GGC(1620)GGGGGG-Nle).
T1 construct: Control peptide, not of natural origin
T1 peptide: GGC(ARS‑1620 (S-atropisomer))GGGGGG[Nle]
The experiment in a line: BLI, biotinylated peptide.

The next experiment concerns the target T2, AHR2-1620 peptide.
T2 construct: Origin printed as 'off target'
T2 peptide: VVVEPQQQLC(ARS‑1620 (S-atropisomer))QK
The experiment in a line: BLI; 'Affinity (nM)'. In general terms: Biolayer interferometry detects binding as a change in optical thickness at a sensor tip.

Experiment [2] deals with T1, PolyG-1620 peptide (S-atropisomer). The experiment in a line: BLI; 'Affinity (nM)'.

Non-standard residues stand in square brackets, D forms with d. No end group written: not given here. *: point of attachment. ARS‑1620 (S-atropisomer) = O=C(CC*)N1CCN(c2ncnc3c(F)c(-c4c(O)cccc4F)c(Cl)cc23)CC1; Nle = CCCC[C@H](N)C(=O)O

B1: P2F10 Fab (Fab, V domains shown)
VH: EVQLVESGGGVVQPGRSLRLSCAASGFTFSNYAMHWVRQAPGKGLEWVALISYDGSITYYADSVKGRFTISRDNSKDTLYLQMNSLRPEDTTLYYCARERVPYDYYGMAVWGQGTTVTVSS
VL: QSVLTQPPSVSAAPGQKVTISCSGSASNIGSNHVSWYQHVPGTAPQLLIYDDKQRPSGIPDRFSGSKSGTSAALAITGLQTGDEADYYCATWDNSLASAFFGGGTKLTVLS
notes: Fab from a human naive Fab-phage library
Turning to B1, the dissociation constant Kd (commonly the equilibrium constant for the complex coming apart) in experiment [1] was 14.1 nM.

B2: P2G5 Fab (Fab, V domains shown)
VH: QVQLLESGGGVVQPGRSLRLSCAASGFTFSSYAMHWVRQAPGKGLEWLASISYDGSNKFHADSVKGRFTISRDNSKSTLYLQMNSLRAEDTAVYYCVRERVPWDYDGMDVWGQGTTVTVSS
VL: QSVVTQPPSVSAAPGQKVTVSCSGSNSNIGDNYVSWYQLLPGTAPKLLIYDNNKRPSGILDRFSGSKSGTSATLDITGLQTGDEADYYCGTWDSSLLTVVFGGGTKLTVLG
notes: Fab from a human naive Fab-phage library; also called P1C1; P1C1(P2G5)
B2 gave a Kd in experiment [1] of 85.4 nM.

B3: P2F11 Fab (Fab, V domains shown)
VH: DVQLVESGGGVVQPGRSLRLSCAASGFTFSNYAMHWVRQAPGKGLEWVALISYDGSNKFHADSVKGRFTISRDNSKSTLYLQMNSLRAEDTAVYYCVRERVPWDYDGMDVWGQGTTVTVSS
VL: QSVLTQPPSASGTPGQRVTISCSGGNSNIKSNTVSWYRQLPGATPKLLIYKTSQRPSGVPDRFSGSKSDTSATLDIAGLQTGDEADYYCGTWDNSLSSVVFGGGTRVTVLG
notes: as for B1
For the molecule B3, binding in experiment [1] was put at a Kd of 21.7 nM. Against the preceding molecule, the Kd is about 3.9-fold lower.

B4: P1H6 Fab (Fab, V domains shown)
VH: QVQLVESGGGVVQPGRSLRLSCAASGFTFSSYAMHWVRQAPGKGLEWLASISYDGSNKFHADSVKGRFTISRDNSKSTLYLQMNSLRAEDTAVYYCVRERVPWDYDGMDVWGQGTTVTVSS
VL: QSVLTQPPSVSAAPGQKVTVSCSGSSSNIGNNYVSWYQLLPGTAPKLLIYDNNKRPSGILDRFSGSKSGTSATLDITGLQTGDEADYYCGTWDSSLINVVFGGGTKVTVLS
notes: as for B1
The molecule B4 yielded a Kd in experiment [1] of 24.6 nM. The Kd values of the last two molecules are within 1.5-fold of each other.

B5: P1A4 Fab (Fab, V domains shown)
VH: QVQLQESGGGLVQPGRSLRLSCAASGFTFSSYAMHWVRQAPGKGLEWVAVISYDGSNKYYADSVKGRFTISRDNSKNTLYLQMNSLRAEDTAVYYCARDYDWQYFDYWGQGTLVTVSS
VL: QSVVTQPPSVSAAPGQEVTISCSGSSSNIGNNYVSWYQHLPGTAPKLLIYDSDKRPSGIPDRFSGSKSGTSATLGVTGLQTGDEADYYCGTWDSSLSAVMFGGGTKLTVLG
B5: the Kd in experiment [1] is 39 nM; with AHR2-1620 peptide it was 51 nM; in experiment [2], 40 nM.

The record behind these values is US20220289866A1 (University of California, published 2022).
